According to PMC10865538 (BMC Infectious Diseases, 2024):

B1: sdAb10 (VHH)
VHH: EVQLVESGGGLVQPGGSLRLSCAASGNTFPARTMSWVRQAPGKGLELVASIGPGRSTIYADSVKGRFTISRDNSKNTLYLQMNSLRAEDTAVYYCAVAYTSGLALRGSFSYWGQGTLVTVSS
B2: sdAb39 (VHH)
VHH: EVQLVESGGGLVQPGGSLRLSCAASGNTSTRHPMSWVRQAPGKGLELVASIGRGEITYYADSVKGRFTISRDNSKNTLYLQMNSLRAEDTAVYYCAAFVDFLSRHNSRRPYPHGYWGQGTLVTVSS
B3: sdAb12 (VHH)
VHH: EVQLVESGGGLVQPGGSLRLSCAASGNTFPARTMSWVRQAPGKGLELVASIGRGEITYYADSVKGRFTISRDNSKNTLYLQMNSLRAEDTAVYYCAAPAHGSWMSRRPHIYWGQGTLVTVSS
B4: sdAb42 (VHH)
VHH: EVQLVESGGGLVQPGGSLRLSCAASGNTSTRHPMSWVRQAPGKGLELVASIGRGEITYYADSVKGRFTISRDNSKNTLYLQMNSLRAEDTAVYYCAVDAVFGGRHSHWGQGTLVTVSS
B5: sdAb38 (VHH)
VHH: EVQLVESGGGLVQPGGSLRLSCAASGNTSTRHPMSWVRQAPGKGLELVASIGRGEITYYADSVKGRFTISRDNSKNTLYLQMNSLRAEDTAVYYCAVCLRSVFVNCHNFAYWGQGTLVTVSS

Target: SARS-CoV-2 S protein receptor-binding domain (R319-F541) (SARS-CoV-2, UniProt P0DTC2)
Assay: ELISA
Conditions: both partners purified

Binder	binding result	EC50
B1	binds	–
B2	–	4 nM
B3	binds	–
B4	binds	–
B5	binds	–
